Where only a bound is given, the exact number is not on record here.

Data set [1] concerns eYFP-S1PDZ1-FYVE in MCF-7 cells. The data set can be described thus: Pharmacological treatment, localization of eYFP-S1PDZ1-FYVE. In kind it is cell-based. The note with it: wortmannin 500 nM or LY294002 50 µM for 30 min, YM201636 800 nM for 2 h.
Data set [2] has as its system eYFP-S1PDZ1-CASK in MCF-7 cells. The data set can be described thus: Pharmacological treatment, plasma membrane localization of eYFP-S1PDZ1-CASK. The format is cell-based. The note with it: MCF-7; ionomycin 10 µM; PAO 100 µM; wortmannin 500 nM.
For data set [3], the system named is eYFP-S1PDZ1-MAGI3_3 and eYFP-S1PDZ1-IL16_1 in MCF-7 cells. The data set can be described thus: Pharmacological treatment, peroxisomal enrichment of eYFP-S1PDZ1-MAGI3_3 and eYFP-S1PDZ1-IL16_1. In kind it is cell-based. The note with it: wortmannin 500 nM, LY294002 50 µM, ionomycin 10 µM.
For data set [4], the target named is C-terminal peptide of usher (FTDTHL). Kind of data set: Equilibrium peptide binding titration followed by intrinsic tryptophan fluorescence. The note with it: for Kd: Y167W mutation introduced as fluorescent probe, protein 3 µM, 25°C, pH 7.2. From the text:
Given the overall low PtdInsPs specificities, and often modest PtdInsPs affinities, it is unlikely that PtdInsPs bindings alone target the PDZ domains to their defined subcellular compartments. Plausibly, peptide interactions are also involved in controlling the subcellular targeting. To address the interplay between PtdInsPs and peptide-binding we chose DFNB31_1 and CASK as models, taking two of the PDZ domains with well-defined cognate peptides. Cognate peptide ligands were the C-terminal peptides of usher (FTDTHL) for DFNB31_1 [50] and the TKEFYA peptide of syndecan-2 for CASK [51]. We measured the PDZ-peptide affinities by a fluorescence-based approach (Fig. 4E), by engineering Trp into the PDZ scaffolds and following the interactions by changes in intrinsic fluorescence, a strategy previously established for other PDZ domains (KD-values: DFNB31_1/Y167W for FTDTHL 46±6 µM; CASK/I157W for TKEFYA 280±20 µM), [52]. We then determined the apparent PtdIns(4,5)P2 affinities in presence of a (close to) saturating concentration of respective peptide (1 mM). The FTDTHL peptide appeared to compete for DFNB31_1-PtdIns(4,5)P2 interactions (KD ^PtdIns(4,5)P2 in presence of peptide >30 µM, Fig. 4F), which might indicate overlapping binding sites. […] We have previously reported on competitive binding by peptide and PtdIns(4,5)P2 with CASK [13]. However, in these experiments the peptide was linked to sepharose beads and PtdIns(4,5)P2 was present on micelles, which made it more difficult for the PDZ domain to simultaneously interact with the two ligands.
(§1) Spectrofluorimetric measurements were performed at 25°C in 25 mM HEPES, 150 mM NaCl, pH 7.2 and 1 mM beta-mercaptoethanol in a Carry Eclipse Spectrofluorimeter (Varian). The peptides corresponded to the C-termini of syndecan-2 (TKEFYA) and usher (FTDTHL) and were of high purity (purity >95%, GeneCust), and the experiment were performed and analyzed as described previously. Urea induced equilibrium unfolding experiments were performed using 1 µM of proteins (excitation 280 nm emission 320–380 nm) and the data fitted by a standard two-state model.

Data set [5] is described as follows: SPR equilibrium binding of his-tagged PDZ domains to PtdIns(4,5)P2 liposomes. The note with it: for Kd: SPR equilibrium analysis, 5% PtdIns(4,5)P2 in DOPC liposomes, 25°C, pH 7.2, read-out: KD app PtdIns(4,5)P2.
Data set [6] can be described thus: Urea induced equilibrium unfolding followed by fluorescence. The format is physicochemical. The note with it: Y167W background, ΔGD-N mut − ΔGD-N wt. The method, then: as §1
The effects of the mutations on the stability were calculated by ΔΔGD −N = ΔGD −Nmut − ΔGD −Nwt, where ΔΔGD-N is the difference between the free energies of unfolding upon mutation.

For another data set, the target named is T1, CASK/I517W (human, UniProt O14936 489-564).
T1 chain: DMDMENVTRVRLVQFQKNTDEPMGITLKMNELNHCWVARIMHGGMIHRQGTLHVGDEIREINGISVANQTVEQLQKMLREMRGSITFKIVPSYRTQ
The data set can be described thus: other fluorescence titration; equilibrium titration of peptide into Trp-engineered PDZ domain kept constant at 3 µM, followed by intrinsic tryptophan fluorescence; 25°C, 25 mM HEPES, 150 mM NaCl, pH 7.2, 1 mM beta-mercaptoethanol. The note with it: both partners purified.

The target in the next data set is T2, DFNB31_1/Y167W (human, UniProt Q9P202 136-224, Y167W).
T2 construct: first PDZ domain of human DFNB31 (whirlin); predicted PDZ domain (Interpro, PFAM, SMART) with ten amino acids of the original protein added on each side; also called first PDZ domain of DFNB31 with a Trp probe
T2 sequence: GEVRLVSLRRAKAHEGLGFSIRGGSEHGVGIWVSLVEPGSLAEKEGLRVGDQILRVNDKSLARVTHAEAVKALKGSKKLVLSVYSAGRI
The description is as above. The note with it: both partners purified.

The target of data set [7] is T3, DFNB31_1/R144E (with Y167W) (human, UniProt Q9P202 136-224, R144E | Y167W).
T3 construct: first PDZ domain of human DFNB31 (whirlin); predicted PDZ domain with ten amino acids added on each side
T3 sequence: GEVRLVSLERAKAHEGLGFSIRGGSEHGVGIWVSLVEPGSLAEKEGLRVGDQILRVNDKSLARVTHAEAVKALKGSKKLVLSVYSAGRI
The data set is described as above. The note with it: both partners purified.

In data set [8] the target is T4, DFNB31_1/R145E (with Y167W) (human, UniProt Q9P202 136-224, R145E | Y167W).
T4 construct: first PDZ domain of human DFNB31 (whirlin); predicted PDZ domain with ten amino acids added on each side
T4 sequence: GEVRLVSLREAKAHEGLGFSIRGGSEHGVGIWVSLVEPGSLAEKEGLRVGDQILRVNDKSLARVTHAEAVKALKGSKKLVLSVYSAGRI
The data set is described as above. The note with it: both partners purified.

Data set [9] deals with T5, DFNB31_1/K206E (with Y167W) (human, UniProt Q9P202 136-224, K206E | Y167W).
T5 construct: first PDZ domain of human DFNB31 (whirlin); predicted PDZ domain with ten amino acids added on each side
T5 sequence: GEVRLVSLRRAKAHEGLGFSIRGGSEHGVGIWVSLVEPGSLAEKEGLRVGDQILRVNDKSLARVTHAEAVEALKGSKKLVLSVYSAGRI
The description is as above. The note with it: both partners purified.

Data set [10] has as its target T6, DFNB31_1/K209E (with Y167W) (human, UniProt Q9P202 136-224, K209E | Y167W).
T6 construct: first PDZ domain of human DFNB31 (whirlin); predicted PDZ domain with ten amino acids added on each side; The text once prints R209E for this mutant; also called R209E (once in the text)
T6 sequence: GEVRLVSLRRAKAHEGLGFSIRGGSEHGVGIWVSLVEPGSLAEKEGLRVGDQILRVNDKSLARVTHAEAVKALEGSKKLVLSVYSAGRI
The description is as above. The note with it: both partners purified.

For data set [11], the target named is T7, DFNB31_1/K212E (with Y167W) (human, UniProt Q9P202 136-224, K212E | Y167W).
T7 construct: first PDZ domain of human DFNB31 (whirlin); predicted PDZ domain with ten amino acids added on each side
T7 sequence: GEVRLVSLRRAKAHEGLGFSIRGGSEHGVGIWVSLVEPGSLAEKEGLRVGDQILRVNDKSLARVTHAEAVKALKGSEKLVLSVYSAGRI
The data set is described as above. The note with it: both partners purified.

For the molecule `COC[C@H]1OC(=O)c2coc3c2[C@@]1(C)C1=C(C3=O)[C@@H]2CCC(=O)[C@@]2(C)C[C@H]1OC(C)=O` [wortmannin], the “localization of eYFP-S1PDZ1-FYVE upon treatment” value in data set [1] is recorded as “lost”. Moreover, the “plasma membrane localization of eYFP-S1PDZ1-CASK upon treatment” value in data set [2] was “failed to release”. Moreover, the “peroxisomal enrichments of eYFP-S1PDZ1-MAGI3_3 and eYFP-S1PDZ1-IL16_1 upon treatment” value in data set [3] was “did not alter”.

Regarding `Nc1ccc(C(=O)Nc2cccc(-c3nc(N4CCOCC4)c4oc5ncccc5c4n3)c2)cn1` [YM201636], the “localization of eYFP-S1PDZ1-FYVE upon treatment” value in data set [1] was “accumulation of eYFP-S1PDZ1-FYVE at the limiting membranes”.

As for `O=c1cc(N2CCOCC2)oc2c(-c3ccccc3)cccc12` [LY294002, 2-(4-morpholinyl)-8-phenyl-4H-1-benzopyran-4-one], in data set [1], the “localization of eYFP-S1PDZ1-FYVE upon treatment” value is “lost”. Further, the “peroxisomal enrichments of eYFP-S1PDZ1-MAGI3_3 and eYFP-S1PDZ1-IL16_1 upon treatment” value in data set [3] was “did not alter”.

`CCCCOc1cc(C(=O)NCCN(CC)CC)c2ccccc2n1` [dibucaine]: the “plasma membrane localization of eYFP-S1PDZ1-CASK upon treatment” value in data set [2] is on record as “failed to release”.

B1: DFNB31_1/Y167W: DFNB31_1 with Y167W mutation as fluorescent probe (protein)
chain: GEVRLVSLRRAKAHEGLGFSIRGGSEHGVGIWVSLVEPGSLAEKEGLRVGDQILRVNDKSLARVTHAEAVKALKGSKKLVLSVYSAGRI
modifications: left off: His6, N-terminal, state not stated
notes: DFNB31_1 with Y167W mutation as fluorescent probe
In [4], B1 showed a Kd of 46 ± 6 µM.

B2: DFNB31_1/R145E: DFNB31_1 PDZ domain mutant R145E (protein)
chain: GEVRLVSLREAKAHEGLGFSIRGGSEHGVGIWVSLVEPGSLAEKEGLRVGDQILRVNDKSLARVTHAEAVKALKGSKKLVLSVYSAGRI
modifications: left off: His6, N-terminal, state not stated
B2: the values for the Kd in data set [5] and in data set [4] were 15 ± 5 µM and 71 ± 8 µM, respectively. In data set [5] (versus wild type DFNB31_1), the “decrease in PtdIns(4,5)P2 binding upon mutation” value is reported as 2 fold. Besides, the ΔΔGD-N in data set [6] is -0.53 ± 0.05 kcal/mol.

B3: DFNB31_1/R144E: DFNB31_1 PDZ domain mutant R144E (protein)
chain: GEVRLVSLERAKAHEGLGFSIRGGSEHGVGIWVSLVEPGSLAEKEGLRVGDQILRVNDKSLARVTHAEAVKALKGSKKLVLSVYSAGRI
modifications: left off: His6, N-terminal, state not stated
Take B3: the Kd was more than 20 µM in [5] and 82 ± 3 µM in data set [4]. The same molecule had a ΔΔGD-N in [6] of -0.65 ± 0.05 kcal/mol.

B4: DFNB31_1/K212E: DFNB31_1 PDZ domain mutant K212E (protein)
chain: GEVRLVSLRRAKAHEGLGFSIRGGSEHGVGIWVSLVEPGSLAEKEGLRVGDQILRVNDKSLARVTHAEAVKALKGSEKLVLSVYSAGRI
modifications: left off: His6, N-terminal, state not stated
As to B4, the Kd in [5] is more than 20 µM; in data set [4], 220 ± 40 µM. In addition, the ΔΔGD-N in data set [6] turned out to be 1.2 ± 0.1 kcal/mol.

B5: DFNB31_1/K206E: DFNB31_1 PDZ domain mutant K206E (protein)
chain: GEVRLVSLRRAKAHEGLGFSIRGGSEHGVGIWVSLVEPGSLAEKEGLRVGDQILRVNDKSLARVTHAEAVEALKGSKKLVLSVYSAGRI
modifications: left off: His6, N-terminal, state not stated
Consider B5, for which the figures for the Kd in data set [5] and in data set [4] were 8.2 ± 2 µM and 111 ± 8 µM, respectively. Also, the “decrease in peptide binding affinity upon mutation” value in [4] (versus DFNB31_1 (Y167W background)) came to 2 fold. In data set [6], this molecule gave a ΔΔGD-N of 0.41 ± 0.03 kcal/mol.

B6: DFNB31_1/K209E: DFNB31_1 PDZ domain mutant K209E (protein)
chain: GEVRLVSLRRAKAHEGLGFSIRGGSEHGVGIWVSLVEPGSLAEKEGLRVGDQILRVNDKSLARVTHAEAVKALEGSKKLVLSVYSAGRI
modifications: left off: His6, N-terminal, state not stated
In the case of B6, the Kd in [5] is more than 20 µM; in data set [4] it was 175 ± 15 µM. For the same molecule, in [6], the ΔΔGD-N is -0.15 ± 0.01 kcal/mol.

B7: C-terminal peptide of syndecan-2 (TKEFYA) (peptide)
peptide: TKEFYA
notes: C-terminus of syndecan-2; last six residues; also called TKEFYA peptide of syndecan-2; source: synthetic peptide, bought: GeneCust (purity >95%)
Regarding B7, in the data set with CASK/I517W, the Kd came out at 280 ± 20 µM.

B8: C-terminal peptide of usher (FTDTHL) (peptide)
peptide: FTDTHL
notes: last six residues; also called FTDTHL peptide; source: synthetic peptide, bought: GeneCust (purity >95%)
For B8, the Kd in the data set with DFNB31_1/Y167W was found to be 46 ± 6 µM; in data set [7] it was 82 ± 3 µM; in [8], 71 ± 8 µM; in data set [9], 111 ± 8 µM; in data set [10], 175 ± 15 µM; in data set [11], 220 ± 40 µM.

(Values after paper PMC3563628, “Prevalence, Specificity and Determinants of Lipid-Interacting PDZ Domains from an In-Cell Screen and In Vitro Binding Experiments” (PLoS ONE, 2013).)
